Measurements taken from CN112552399A (HENGYI BIOMEDICAL TECH SHANGHAI CO LTD, dated 2021).
Numbering of substitutions follows the chain as printed.

B1: 抗体37G2 (antibody, V domains shown)
VH: QVQLVQSGAEVKKPGSSVKVSCKASGGTFSSYAITWVRQAPGQGLEWMGGIIPIFGTANFAQKFQGRVTITADESTSTAYMELSSLRSEDTAVYYCAHLGGFADPFDYWGQGTLVTVSS
VL: EIVLTQSPATLSLSPGERATLSCRASQSVSNYLAWYQQKAGQAPRVLIYDAFNRATGIPARFSGSGSGTDFTLTISSLEPEDFAVYYCQQRSNWPPRITFGQGTRLEIK
B2: 抗体31C2 (antibody, V domains shown)
VH: QVQLVQSGAEVKKPGSSVKVSCKASGGTFSSYAISWVRQAPGQGLEWMGGIIPIFGTTNYAQKFQGRVTITADESTSTAYMELNSLRSEDTAVYYCAGRSAYGDKGYYFDYWGQGTLVTVSS
VL: B1 VL with Y32F, A40P, V46L, F52S, E79Q, R97Q, I98E, R105K, L106V

Molecular target: T1, SARS-CoV-2 S1亚基 (SARS-CoV-2, UniProt P0DTC2 16-685)
T1 construct: also called S1蛋白
Assay: ELISA, coated S1, antibody detected with HRP goat anti-human IgG

Binder	binding result
B1	no binding (tested: 1 μg/mL)
B2	no binding (tested: 1 μg/mL)
